This note sets out measurements from article PMC2834481.

In this assay the target is squid Munc18-1 (squid). Nature of the assay: ITC. (In ITC the heat of successive injections is recorded.)

As usually defined, the Kd is the constant that tells how readily two partners part at equilibrium. A high value points to a looser complex. “synaptobrevin(49-96) (from UniProt P63045 49-96) (domain or fragment)” registered a Kd of 13.3 µM. With “synaptobrevin(77-96) peptide (from UniProt P63045 77-96)” the figure was 13.5 µM.
